For experiment [1], the target named is TR5, non-glycosylated MUC1 peptide […]n with n=5. Briefly: ELISA, 10 µg/ml antibody; reference is TR1 (SEQ ID NO: 72). (ELISA stands for enzyme-linked immunosorbent assay.)
For experiment [2], the target named is glycosylated 30mer MUC1 peptide. Briefly: ELISA, 10 µg/ml antibody; reference is the non-glycosylated 30mer.
The target is the same in experiment [3]. Briefly: ELISA of Example 5.1; reference is the non-glycosylated 30mer.

glycosylated 30mer MUC1 peptide, sequence (peptide, as listed by the source): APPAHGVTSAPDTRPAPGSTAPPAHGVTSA
TR5, non-glycosylated MUC1 peptide […]n with n=5, sequence (peptide, as listed by the source): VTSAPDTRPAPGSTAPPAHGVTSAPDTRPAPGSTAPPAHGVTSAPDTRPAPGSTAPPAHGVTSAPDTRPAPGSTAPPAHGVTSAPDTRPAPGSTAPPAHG

For C595 (antibody), the factor (ratio of the signal with TR5 peptide to that with TR1 peptide) in experiment [1] stood at 1.1. Further, the factor (ratio of glycosylated/non-glycosylated peptide) in experiment [2] was < 1.2.

As to HMFG-1 (antibody), the factor (ratio of glycosylated/non-glycosylated peptide) in experiment [2] was < 1.2.

With SM3 (antibody), the factor (ratio of the signal with TR5 peptide to that with TR1 peptide) in experiment [1] is 2.1. Besides, the factor (glycosylated against non-glycosylated peptide) in experiment [3] is 1.5. The factor (ratio of glycosylated/non-glycosylated peptide) in experiment [2] was < 1.2.

(Values after patent US20150005474A1.)
